The target in assay [1] is T1, human Notch3-Gal4 chimeric receptor on U2OS FlpIn TREx cells (human, UniProt Q9UM47 40-2321). As to the kind of experiment: cell-based or functional assay.
Assay [2] deals with T2, human full-length Notch1 with C-terminal FLAG tag, stably expressed on 293 FlpIn (TREx) cells (human, UniProt P46531 19-2555).
T2 construct: tetracycline/doxycycline-induced expression from pcDNA5/FRT/TO-HN1+FLAG; also called hN1; 293_N1
As to the kind of experiment: FACS, hN1 293 cells, MFI grade (++ 101-500). How it is done: Notch 293 FlpIn (TREx) cells were treated with dox (2 ug/ml) for two days to induce Notch expression before collecting them for FACS surface expression analysis. The cells were harvested from tissue culture flasks using Trypsin for 15 min, centrifuged at 1200 rpm for 10 minutes and resuspended in 2 ml PBS with 2% fetal bovine serum (2% FBS/PBS). The cells were counted, adjusted to 10⁷ cells/ml and 0.1 ml of cells was incubated with 1 ug of each Mab for 40 minutes at 4° C. The cells were washed, resuspended in 0.1 ml 2% FBS/PBS and incubated with 1 ug R-PE-conjugated goat anti-human Ig (Jackson ImmunoResearch) for 30 minutes at 4° C. Cells were washed, resuspended in 0.3 ml PBS with 10% formaldehyde and analyzed on a FACSCalibur (Becton Dickinson, Mt View, Calif.).

The target of assay [3] is T3, Notch1 extracellular fragment (amino acid 19-526) Fc fusion protein, R&D Systems 3647-TK (human, UniProt P46531 19-526).
T3 construct: bought protein; also called Notch1/Fc; Notch1-ECD Fc fusion protein; not shown: Fc of the bought fusion protein
The assay is described as follows: BIAcore SPR, Notch1/Fc on CM5, Mab analyte, 1:1 binding. How it is done:
All experiments were performed at 25° C. at a flow rate of 40 μl/min. […] FC1 was used as the reference cell. Specific signals were the results of differences of signals obtained on FC2 versus FC1. […] The dissociation phase of the analyte was monitored over a period of time ranging 10-30 minutes. Running buffer was also injected under the same conditions as a reference.
Equilibrium dissociation constant (KD) was calculated by the ratio between dissociation (koff) and association (kon) rate constants.

Assay [4] addresses T1, human Notch3-Gal4 chimeric receptor on …. As to the kind of experiment: cell-based or functional assay. The source holds these as a separate data set.

Read-outs that look alike come from different tables or passages of the source.

B1: S3-009 (antibody, human IgG1, lambda, V domains shown)
VH: EVQLVQSGAEVKKPGASVKVSCKASGYNFTGYYMHWVRQAPGQGLEWMGWINPNSGGTNYAQKFQGRVTMTRDTSISTAYMELSRLRSDDTAVYYCATDSFDYWGQGTMVTVSS
VL: SYVLTQPPSVSEAPRQRVTISCSGSSSNIGNNAVSWYQQLPGKAPKTLIYYDDLLSSGVSDRFSGSRSGTSASLAISGLQSEDEADYYCAAWDDSLNGVVFGGGTKLTVLQ
notes: also called hN1S3-009; HN1S3-9
For the molecule B1, the “hN3, inhibition of Luc activity at [166 nM] Mab” value (“hN3, inhibition of Luc activity” for short) in assay [1] was less than 20%. Besides, in assay [2], the MFI was in the range of 101 to 500 mfi. In assay [3], this molecule registered a Kd of 5.23 nM, a koff of 0.00268 s⁻¹ and a kon of 513000 M⁻¹ s⁻¹.

B2: WC-173 (antibody, human IgG1, lambda, V domains shown)
VH: EVQLVQSGAEVKKPGASVKVSCKASGYNFTGYYMHWVRQAPGQGLEWMGWINPNSGGTNYAQKFQGRVTMTRDTSISTAYMELSRLRSDDTAVYYCATDSFDYWGQGTTVTVSS
VL: QPVLTQPPSASWTPGQRVTISCSGSSSNIGSNTVHWYRQFPGTAPQLLIYSNNQRPSGVPDRFSGSKSGTSASLAIRGLQSEDEADYYCAAWDDSLNGVVFGGGIKLTVLQ
notes: also called N1wc173; hN1wc-173
B2: in assay [1], the “hN3, inhibition of Luc activity” value was less than 20%. Further, the MFI in assay [2] fell in the range of 101 to 500 mfi. In assay [3], the affinity, expressed as Kd, was 3.27 nM; the dissociation rate constant (koff) was 0.000447 s⁻¹; the kon was found to be 137000 M⁻¹ s⁻¹.

B3: S3-094 (antibody, human IgG1, lambda, V domains shown)
VH: EVQLVQSGAEVKKPGASVKVSCKASGYNFTGYYMHWVRQAPGQGLEWMGWINPNSGGTNYAQKFQGRVTMTRDTSISTAYMELSRLRSDDTAVYYCATDSFDYWGRGTMVTVSS
VL: QSVLTQPPSASGTPGQRVTISCSGGSSNIGSNTVTWYQQLPGKAPKLLIYISDQRPSGVPDRFSGSKSGTSASLAIRGLQSEDEADYYCAAWDDSLNGAVFGTGTKVTVLQ
notes: also called hN1S3-094; HN1S3-94
Consider B3, for which, in assay [1], the “hN3, inhibition of Luc activity” value was less than 10%. Moreover, the MFI in assay [2] fell in the range of 101 to 500 mfi. In assay [3], binding was put at a Kd of 3.89 nM, the off-rate constant (koff) came to 0.00163 s⁻¹ and the kon amounted to 420000 M⁻¹ s⁻¹.

B4: S3-011 (antibody, human IgG1, lambda, V domains shown)
VH: QVQLVQSGPEVKKPGASVKVSCKASGYNFTGYYMHWVRQAPGQGLEWMGWINPNSGGTNYAQKFQGRVTMTRDTSISTAYMELSRLRSDDTAVYYCATDSFDYWGRGTMVTVSS
VL: not shown
notes: also called hN1S3-011
For B4, the “hN3, inhibition of Luc activity” value in assay [1] is less than 10%. Also, the MFI in assay [2] was in the range of 101 to 500 mfi.

B5: WC-613 (antibody, human IgG1, lambda, V domains shown)
VH: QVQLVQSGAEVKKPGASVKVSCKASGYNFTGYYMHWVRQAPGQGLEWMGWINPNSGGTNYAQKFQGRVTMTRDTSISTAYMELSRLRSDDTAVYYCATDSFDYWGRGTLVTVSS
VL: SYELTQPPSASGTPGQRVTISCSGSYSNIGSNYVYWYQQLPGTAPKLLIYTNNQRPSGVPDRFSGSKSGTSASLVISGLRSDDEGDYYCAAWDDSVSVLLFGGGTKVTVLQ
notes: also called N1wc613; hN1wc-613
B5: the “hN3, inhibition of Luc activity” value in assay [1] was less than 10%. The molecule further registered an MFI in assay [2] of 101 to 500 mfi. In assay [3], this molecule showed a Kd of 1.09 nM, a koff of 0.000258 s⁻¹ and a kon of 237000 M⁻¹ s⁻¹.

B6: FL-SKNAS-C2-384 (antibody, human IgG1, lambda, V domains shown)
VH: EVQLVQSGAEVKKPGSSVKVSCKASGGTLSSSAISWVRQAPGEGLEWMGGIIPMFDSTNYAQKFQGRVTITADESTSTAFMELSSLRSDDTAVYYCGRDPYYDRLSGGGYMDVWGQGTLVTVSS
VL: SYVLTQPPSVSGALRQTATVTCTGNSSNVGNQGAAWLRQHQGRPPKLLSYRNNDRPSGVSQRFSASTSGNTASLTITGLQSEDEADYFCSAWDSSRSGWVFGGGTKLTVLG
For B6, the “hN3, inhibition of Luc activity” value in assay [4] was less than 5%.

B7: A673-C2-110 (antibody, human IgG1, lambda, V domains shown)
VH: QVQLVQSGTEVKKPGASVRVSCKPSADTFTSYYVHWVRQAPGQGLEWMGTINPTGTYTRYAQQFQGRVTVTRDTSTSSVYMELSSLRSEDSAVYYCARDVRPYTAMYSFDNWGRGTTVTVSS
VL: SYVLTQPPSVSVSPGQTATITCSGDALPKQYANWYQQKPGQAPVLMIYKDSDRPSGIPERFSGSSSGTKATLTISGVQAEDEADYYCQSADNSGTNYVFGTGTKLTVLG
B7: the “hN3, inhibition of Luc activity” value in assay [4] was less than 10%.

(Values after patent publication US20110286916A1 (published 2011).)
